Data from paper PMC13379273 (Advanced Science, 2026).

Target: the molecule itself
Test: SEC; […] (20 mM HEPES, 150 mM NaCl pH 7.2), room temperature; […]

B1: Hendra virus W protein (W^HeV), wild type (natural protein)
chain: MDKLDLVNDGLDIIDFIQKNQKEIQKTYGRSSIQQPSTKDRTRAWEDFLQSTSGEHEQAEGGMPKNDGGTEGRNVEDLSSVTSSDGTIGQRVSNTRAWAEDPDDIQLDPMVTDVVYHDHGGECTGHGPSSSPERGWSYHMSGTHDGNVRAVPDTKVLPNAPKTTVPEEVREIDLIGLEDKFASAGLNPAAVPFVPKNQSTPTEEPPVIPEYYYGSGRRGDLSKSPPRGNVNLDSIKIYTSDDEDENQLEYEDEFAKSSSEVVIDTTPEDNDSINQEEVVGDPSDQGLEHPFPLGKFPEKEETPDVRRKDSLMQDSCKRGGVPKRLPMLSEEFECSGSDDPIIQELEREGSHPGGSLRLREPPQSSGNSRNQPDRQLKTGDAASPGGVQRPGTPMPKSRIMPIKKGAQTRSLNMLGRKTCLGRRVVQPGMFADYPPTKKARVLLRRMSN
**Q.** Does B1 bind?
**A.** Result: binds
